Measured values: patent US10281476B2, “Methods to identify modulators of RyR calcium channels” (REGENTS OF THE UNIVERSITY OF MINNESOTA, priority 2013, dated 2019)

Experiments:
[1] = target: T1, RyR2 (Rattus norvegicus, UniProt B0LPN4); assay: Fluorescent FKBP12.6 binding at the Z-line of permeabilized myocytes; set-up: These fluorescent proteins were added to saponin-permeabilized myocytes with or without pre-equilibration with saturating DPc10 concentration; endogenous in cells; host or cells: saponin-permeabilized rat ventricular myocytes
Description: These fluorescent proteins were added to saponin-permeabilized myocytes with or without pre-equilibration with saturating DPc10 concentration. […] We also did this with high [CaM] (500 nmol/L) that saturates RyR2 with CaM under control conditions (without DPc10; FIG. 17C). […] To test whether DPc10 and CaM bind at the same or nearby RyR2 sites, we measured FRET between CaM and DPc10.
FKBP12.6 can bind to and stabilize RyR2 channel gating, but details are controversial (Bers et al., Circ Res. 2012; 110:796-799). We measured the effect of H2O2 on FKBP12.6-RyR2 binding affinity in saponin-permeabilized myocytes using F-FKBP (Yang et al., Circ Res. 2014; 114:295-306; Cornea et al., Proc Natl Acad Sci USA. 2009; 106:6128-6133; Guo et al., Circ Res. 2010; 106:1743-1752; Guo et al., Biophys J. 2011; 101:2170-2177; Cornea et al., J Biol Chem. 2010; 285:19219-19226). […] We used 1 nmol/L F-FKBP (the its Kd) (Guo et al., Circ Res. 2010; 106:1743-1752), because at half-saturation it would be very sensitive to either an increase or decrease in RyR2 binding.
Target sequence in this assay (B0LPN4 whole entry): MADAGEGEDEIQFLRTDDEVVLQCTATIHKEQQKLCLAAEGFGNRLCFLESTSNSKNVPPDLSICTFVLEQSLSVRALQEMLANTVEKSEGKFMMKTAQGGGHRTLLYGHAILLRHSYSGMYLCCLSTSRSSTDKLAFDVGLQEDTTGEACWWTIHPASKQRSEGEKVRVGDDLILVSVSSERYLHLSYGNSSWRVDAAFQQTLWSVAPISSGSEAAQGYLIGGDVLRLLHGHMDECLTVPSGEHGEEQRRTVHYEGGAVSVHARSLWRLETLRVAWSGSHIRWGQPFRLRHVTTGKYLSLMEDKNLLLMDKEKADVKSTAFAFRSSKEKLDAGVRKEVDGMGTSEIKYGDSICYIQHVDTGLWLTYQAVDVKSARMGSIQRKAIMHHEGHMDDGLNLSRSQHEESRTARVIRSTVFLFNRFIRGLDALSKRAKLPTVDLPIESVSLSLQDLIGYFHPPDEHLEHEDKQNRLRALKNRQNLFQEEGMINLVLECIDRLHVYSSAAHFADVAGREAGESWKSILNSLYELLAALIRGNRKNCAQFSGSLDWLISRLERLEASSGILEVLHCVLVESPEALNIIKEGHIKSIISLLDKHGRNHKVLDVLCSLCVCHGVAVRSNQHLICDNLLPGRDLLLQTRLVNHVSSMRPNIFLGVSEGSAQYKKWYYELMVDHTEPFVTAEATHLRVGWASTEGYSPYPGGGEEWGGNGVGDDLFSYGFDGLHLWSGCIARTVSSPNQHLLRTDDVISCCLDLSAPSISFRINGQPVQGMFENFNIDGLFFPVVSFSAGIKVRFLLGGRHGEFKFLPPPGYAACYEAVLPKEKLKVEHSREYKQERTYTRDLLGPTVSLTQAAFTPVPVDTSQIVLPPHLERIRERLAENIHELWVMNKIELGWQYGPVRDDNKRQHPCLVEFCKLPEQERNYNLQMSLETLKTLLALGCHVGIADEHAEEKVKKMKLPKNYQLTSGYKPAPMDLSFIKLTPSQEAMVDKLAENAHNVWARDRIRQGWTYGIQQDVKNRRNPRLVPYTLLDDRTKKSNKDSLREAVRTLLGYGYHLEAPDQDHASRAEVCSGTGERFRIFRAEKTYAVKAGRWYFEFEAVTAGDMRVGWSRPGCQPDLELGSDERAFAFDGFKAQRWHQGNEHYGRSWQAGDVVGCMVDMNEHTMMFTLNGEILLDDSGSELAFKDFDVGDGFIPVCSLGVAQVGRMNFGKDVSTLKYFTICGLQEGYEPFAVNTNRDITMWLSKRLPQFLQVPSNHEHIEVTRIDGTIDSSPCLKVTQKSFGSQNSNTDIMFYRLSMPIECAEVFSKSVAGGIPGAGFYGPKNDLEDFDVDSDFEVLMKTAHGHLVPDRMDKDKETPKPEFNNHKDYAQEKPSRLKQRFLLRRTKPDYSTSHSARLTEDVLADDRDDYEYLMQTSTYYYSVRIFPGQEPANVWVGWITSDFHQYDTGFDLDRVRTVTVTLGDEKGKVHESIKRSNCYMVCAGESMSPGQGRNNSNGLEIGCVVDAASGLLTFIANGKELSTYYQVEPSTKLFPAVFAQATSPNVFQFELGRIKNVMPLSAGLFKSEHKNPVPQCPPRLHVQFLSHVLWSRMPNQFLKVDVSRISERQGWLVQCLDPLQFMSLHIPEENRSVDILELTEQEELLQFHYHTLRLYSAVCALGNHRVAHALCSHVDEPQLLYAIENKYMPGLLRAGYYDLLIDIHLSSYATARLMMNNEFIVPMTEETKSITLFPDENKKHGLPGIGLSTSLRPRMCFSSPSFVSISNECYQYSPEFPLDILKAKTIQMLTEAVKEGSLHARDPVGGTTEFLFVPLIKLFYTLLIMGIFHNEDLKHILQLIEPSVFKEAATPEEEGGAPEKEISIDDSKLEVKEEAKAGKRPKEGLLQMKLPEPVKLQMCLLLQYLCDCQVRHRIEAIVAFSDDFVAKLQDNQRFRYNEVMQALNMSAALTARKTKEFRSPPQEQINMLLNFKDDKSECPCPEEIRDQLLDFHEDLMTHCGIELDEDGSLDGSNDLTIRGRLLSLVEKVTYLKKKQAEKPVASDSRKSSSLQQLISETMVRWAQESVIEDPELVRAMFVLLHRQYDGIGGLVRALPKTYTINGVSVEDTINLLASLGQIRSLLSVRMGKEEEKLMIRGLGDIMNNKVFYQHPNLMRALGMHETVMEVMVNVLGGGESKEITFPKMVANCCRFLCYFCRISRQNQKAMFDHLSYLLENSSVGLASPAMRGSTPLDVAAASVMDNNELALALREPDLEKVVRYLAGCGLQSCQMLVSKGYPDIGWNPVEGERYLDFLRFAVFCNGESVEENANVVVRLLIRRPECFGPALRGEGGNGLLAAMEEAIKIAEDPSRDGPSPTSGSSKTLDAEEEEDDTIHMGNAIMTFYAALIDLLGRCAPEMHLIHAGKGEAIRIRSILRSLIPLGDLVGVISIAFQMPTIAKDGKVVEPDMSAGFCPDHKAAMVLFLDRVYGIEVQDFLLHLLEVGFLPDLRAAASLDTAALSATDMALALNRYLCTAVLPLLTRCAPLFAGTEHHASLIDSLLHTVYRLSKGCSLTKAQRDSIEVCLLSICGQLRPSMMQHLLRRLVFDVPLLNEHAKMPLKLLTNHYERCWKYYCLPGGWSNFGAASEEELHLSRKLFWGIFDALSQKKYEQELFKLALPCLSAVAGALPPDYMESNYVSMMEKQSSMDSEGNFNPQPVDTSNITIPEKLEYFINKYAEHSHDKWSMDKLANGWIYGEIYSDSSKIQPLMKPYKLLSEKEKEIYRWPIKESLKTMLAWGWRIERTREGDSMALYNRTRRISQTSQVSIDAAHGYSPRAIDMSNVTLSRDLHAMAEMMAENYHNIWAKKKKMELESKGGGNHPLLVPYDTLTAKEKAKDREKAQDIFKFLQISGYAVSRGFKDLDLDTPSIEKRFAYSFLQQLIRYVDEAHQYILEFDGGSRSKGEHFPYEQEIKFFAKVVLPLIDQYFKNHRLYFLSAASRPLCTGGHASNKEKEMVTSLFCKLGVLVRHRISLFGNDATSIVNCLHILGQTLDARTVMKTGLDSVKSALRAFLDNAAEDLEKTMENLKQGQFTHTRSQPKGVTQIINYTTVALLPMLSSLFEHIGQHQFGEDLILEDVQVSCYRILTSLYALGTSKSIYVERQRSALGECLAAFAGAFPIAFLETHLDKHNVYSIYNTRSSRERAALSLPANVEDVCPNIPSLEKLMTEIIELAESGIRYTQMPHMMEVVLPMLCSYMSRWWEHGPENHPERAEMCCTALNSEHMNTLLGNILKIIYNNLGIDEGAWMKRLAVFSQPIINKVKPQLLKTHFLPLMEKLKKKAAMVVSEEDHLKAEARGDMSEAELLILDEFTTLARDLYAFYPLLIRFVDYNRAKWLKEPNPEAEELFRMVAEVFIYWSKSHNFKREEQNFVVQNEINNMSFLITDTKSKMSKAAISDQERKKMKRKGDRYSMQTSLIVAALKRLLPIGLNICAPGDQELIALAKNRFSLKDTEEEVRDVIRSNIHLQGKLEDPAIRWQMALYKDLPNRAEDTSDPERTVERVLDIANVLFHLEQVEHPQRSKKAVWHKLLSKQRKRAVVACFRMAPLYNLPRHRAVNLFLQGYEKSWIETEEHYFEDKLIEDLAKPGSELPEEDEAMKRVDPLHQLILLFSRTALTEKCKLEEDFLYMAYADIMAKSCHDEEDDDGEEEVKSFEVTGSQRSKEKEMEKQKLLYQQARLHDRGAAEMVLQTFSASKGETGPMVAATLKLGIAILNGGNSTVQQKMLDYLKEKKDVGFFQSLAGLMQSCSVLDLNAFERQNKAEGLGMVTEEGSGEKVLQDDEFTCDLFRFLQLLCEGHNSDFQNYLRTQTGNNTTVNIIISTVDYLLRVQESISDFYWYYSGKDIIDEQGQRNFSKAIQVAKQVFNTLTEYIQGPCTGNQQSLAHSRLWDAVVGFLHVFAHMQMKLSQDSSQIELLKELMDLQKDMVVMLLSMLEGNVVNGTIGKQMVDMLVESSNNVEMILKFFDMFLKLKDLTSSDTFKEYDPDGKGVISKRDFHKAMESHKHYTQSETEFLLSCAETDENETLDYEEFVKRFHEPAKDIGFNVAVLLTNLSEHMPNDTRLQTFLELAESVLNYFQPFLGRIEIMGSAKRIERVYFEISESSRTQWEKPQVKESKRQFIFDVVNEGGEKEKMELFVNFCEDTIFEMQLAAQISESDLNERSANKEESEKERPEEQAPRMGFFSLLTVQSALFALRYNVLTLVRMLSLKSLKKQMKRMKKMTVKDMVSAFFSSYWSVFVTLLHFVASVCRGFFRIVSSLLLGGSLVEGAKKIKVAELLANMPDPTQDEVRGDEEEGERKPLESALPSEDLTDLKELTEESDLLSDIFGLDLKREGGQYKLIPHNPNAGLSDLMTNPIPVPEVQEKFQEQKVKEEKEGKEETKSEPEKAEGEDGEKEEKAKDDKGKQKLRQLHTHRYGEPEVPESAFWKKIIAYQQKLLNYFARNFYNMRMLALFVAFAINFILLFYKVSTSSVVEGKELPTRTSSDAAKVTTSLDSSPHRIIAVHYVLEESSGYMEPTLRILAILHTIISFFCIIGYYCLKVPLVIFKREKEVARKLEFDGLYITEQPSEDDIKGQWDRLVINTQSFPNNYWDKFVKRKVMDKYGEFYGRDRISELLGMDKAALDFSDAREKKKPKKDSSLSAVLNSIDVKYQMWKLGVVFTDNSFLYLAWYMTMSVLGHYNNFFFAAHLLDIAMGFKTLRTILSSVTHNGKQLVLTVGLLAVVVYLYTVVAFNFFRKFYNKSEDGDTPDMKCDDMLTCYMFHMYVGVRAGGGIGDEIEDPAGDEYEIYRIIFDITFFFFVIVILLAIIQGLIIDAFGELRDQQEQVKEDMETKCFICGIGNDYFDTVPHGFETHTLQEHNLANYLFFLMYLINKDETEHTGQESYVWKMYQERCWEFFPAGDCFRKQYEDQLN
Target sequence in this assay (P68106 with tags, fused parts or gaps T15C/C23A/C77I partner): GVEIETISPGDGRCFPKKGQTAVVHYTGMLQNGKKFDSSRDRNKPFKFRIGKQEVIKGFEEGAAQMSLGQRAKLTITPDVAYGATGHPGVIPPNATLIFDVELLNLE

[2] = target: T1, RyR2; set-up: These fluorescent proteins were added to saponin-permeabilized myocytes with or without pre-equilibration with saturating DPc10 concentration; endogenous in cells; host or cells: saponin-permeabilized rat ventricular myocytes; conditions: cited from earlier work
Target sequence in this assay (B0LPN4 whole entry): as the sequence (B0LPN4 whole entry) above
Target sequence in this assay (P68106 with tags, fused parts or gaps T15C/C23A/C77I partner): as the sequence (P68106 with tags, fused parts or gaps T15C/C23A/C77I partner) above

[3] = target: T1, RyR2; assay: F-DPc10 wash-in and washout kinetics at the myocyte Z-line; format: binding; set-up: endogenous in cells; host or cells: saponin-permeabilized adult rat ventricular myocytes
Description: To characterize DPc10-binding kinetics at Z-lines, we performed F-DPc10 wash-in (500 nmol/L) and washout experiments in permeabilized myocytes (FIG. 10A). Association (τwash-in=79.0±3.2 minutes) and dissociation (τwashout=149.8±4.4 minutes) were very slow compared with similar FKBP12.6 measurements (Guo et al., Circ Res, 2010; 106:1743-1752). From the wash-in/washout measurements, we calculated the association and dissociation rates constants, kon and koff, respectively, according to the following equation: kwash-in=[F-DPc10]kon+koff where kwashout≈koff and k=1/τ (s^−1). Accordingly, kon=202±20 (L mol^−1 s^−1) and koff=0.11±0.01 (10^−3 s^−1). […] We repeated this kinetic analysis using FRET between FKBP12.6 and DPc10, thus assessing the RyR2-specific DPc10 binding (FIG. 11A AND 11B). […] Based on these kinetic and affinity analyses, we infer that most of the Z-line-specific DPc10 binding is to RyR2. This is also consistent with Bmax, which would imply ≈1 DPc10 per RyR2 monomer.
We were intrigued by the slow kwash-in and conducted measurements to further understand the basis of this slow association. We tested the hypothesis that at resting [Ca^2+]i, DPc10 access to its RyR2 binding site is sterically hindered. If the N-terminal and central domains are tightly zipped to each other, then this interaction may occlude the DPc10-binding site on the RyR2, thus limiting the kon for DPc10. Alternatively, a limiting factor may be the rate at which DPc10 adopts a conformation that can bind to RyR2. To discern between these mechanisms, we determined the effect of [F-DPc10] on τwash-in. If the small fraction of DPc10 in the right conformation limits binding rate, then τwash-in should be faster at higher [F-DPc10], according to Equation. […] Instead, a 10-fold increase in [F-DPc10] had no significant effect on the τwash-in, although it did increase Bmax (FIG. 10B). The same was seen when using FKBP12.6-DPc10 FRET to assess τwash-in with 0.5 vs 5 μmol/L HF647-DPc10 (FIG. 12A AND 12B).
In our working model, under resting conditions, the RyR2 closed state may be stabilized by the interaction between the N-terminal and central domain in the zipped state. We hypothesized that conditions that promote RyR2 opening might enhance the rate of unzipping and accelerate τwash-in for F-DPc10. To test this, we first monitored F-DPc10 wash-in at elevated Ca^2+ (500 nmol/L). However, the 13% faster mean τwash-in was not significant (FIG. 13A). […] Thus, we preincubated myocytes with ryanodine (100 μmol/L) plus caffeine ([…]), which are known to favor long RyR2 openings and were reported to cause RyR2 domain unzipping in HEK293 cells (Liu et al., J Cell Sci, 2010; 123: 1775-1784). Ryanodine+caffeine produced a 21% faster τwash-in (P=0.002; FIG. 13B). However, the most significant effect was seen after presaturating RyR2 with NF-DPc10 (and then NF-DPc10 washout with F-DPc10 present; FIG. 13A). […] Assuming that koff of NF-DPc10 is the same as for F-DPc10 and using Equation, the kon is increased by 3.2-fold by unzipping as a result of prebinding of NF-DPc10 to the RyR2. Our working hypothesis is that the RyR2 open state may increase the probability of an RyR2 shifting to the unzipped state and may allow faster F-DPc10 wash-in. It also seems that the RyR2 open state (favored by caffeine-ryanodine) differs from the unzipped state (bound with DPc10).
Both FKBP12.6 and CaM bind to the RyR2 and can reduce channel opening, which might alter DPc10 binding. […] Neither CaM nor FKBP12.6 pretreatment altered M-line F-DPc10 fluorescence (FIG. 15). […] We infer that CaM stabilizes the domain interaction between N-terminal and central domains in the zipped state and thereby may reduce DPc10 access to its binding site. To test for direct CaM-DPc10 interaction, we performed control FRET measurements between donor-labeled CaM and acceptor-labeled DPc10 in solution in the absence of RyR. The maximal FRET efficiency (<1%) ruled out direct CaM-DPc10 interaction. […]
Target sequence in this assay (B0LPN4 whole entry): as the sequence (B0LPN4 whole entry) above

[4] = system: permeabilized cardiomyocytes; assay: Ca2+ sparks and SR Ca2+ content in permeabilized myocytes; format: cell-based, rat; conditions: 5 μmol/L DPc10 with 1 μmol/L CaM or 100 nmol/L FKBP12.6
Description: Myocytes were permeabilized with saponin (50μg/mL) for 60 seconds and placed in internal solution composed of EGTA 0.5 mmol/L; HEPES 10 mmol/L; Kaspartate 120 mmol/L; ATP 5 mmol/L; free MgCl2 1 mmol/L, reduced glutathione 10 mmol/L; and free [Ca2+] 50nmol/L (calculated using MaxChelator), creatine phosphokinase 5 U/mL, phosphocreatine 10 mmol/L, dextran 4% Fluo-4 0.025 mmol/L, pH 7.2. Ca2+sparks were recorded by a laser scanning confocal microscope (RADIANCE2000™ MP, Bio-Rad, UK) as previously described (Li et al., Circ Res, 2002; 90:309-316). Fluo-4 was excited at 488 nm and emission was recorded using 500/530 nm bandpass filter. To assess SR Ca2+content, caffeine (15 mmol/L) was rapidly perfused. Ca2+spark were analyzed as using SparkMaster (Picht et al., Am J Physiol Cell Physiol, 2007; 293:C1073-C1081).
Next, we asked whether RyR2 is activated by DPc10 and whether FKBP12.6 or CaM can prevent this. We assessed Ca^2+ sparks in permeabilized myocytes perfused with internal solution containing 50 nmol/L free Ca^2+ plus 1 μmol/L autocamtide-2-related inhibitory peptide (to inhibit CaMKII activity). Line-scan images were recorded after 3-hour incubations under control conditions and in the presence of 5 μmol/L DPc10, with or without 1 μmol/L CaM or 100 nmol/L FKBP12.6 (FIG. 14D).

[5] = target: RyR2 (Homo sapiens, UniProt Q92736); conditions: cited from earlier work
[6] = target: RyR1 (Homo sapiens, UniProt P21817); conditions: cited from earlier work
[7] = saturation of RyR2 with CaM 1 μmol/L or FKBP12.6 100 nmol/L, F-DPc10 5 μmol/L

| Substance | Bmax for FKBP12.6, reanalyzed using FZ-FM [1] [µmol/L] | Bmax of FKBP12.6, previous measurements ([2]; cell average fluorescence) | Kd ([2]; read-out: Kd of FKBP12.6 for RyR2) [nM] | effect on F-DPc10 binding ([3]; 200-minute incubation with F-DPc10, pretreatment CaM 1 μmol/L or FKBP12.6 100 nmol/L) | effect on Bmax for F-DPc10 [3, 7] | effect on τwash-in of F-DPc10 [3, 7] | effect on CaSpF activation by DPc10 [4] | lower affinity than FKBP12.6 [5] [fold] | lower binding affinity [6] [fold] |
| --- | --- | --- | --- | --- | --- | --- | --- | --- | --- |
| FKBP12.6: FK506-binding protein 12.6 | 1.3 | ≈ 1 μmol/L | ~1 | did not alter | did not alter | did not alter | only slightly decreased |  |  |
| FKBP12: FK506-binding protein isoform FKBP12 |  |  |  |  |  |  |  | ~100 | ~4 |
